The supplement of paper PMC6755084

B1: minF1; the commonest letter at each place (parent)
chain: GAGACCGCAACTGAAAAGTTGTTATCAGAAATGGATGGGTTGAATTTCTGCACGTAGAAGCAAAAGGC

Variants of: B1
Experiment: fraction ligated after 30 min (ligated reads / total reads); higher = more ligase activity
Details: with F1*subA RNA substrate (template-directed ligation), 42 °C
In short: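 Ligated and unligated RNAs from a pool of minimized ligase ribozyme variants were separated on gels, reverse transcribed with barcoded primers and sequenced on a MiSeq. Core bases needed quality ≥30 to pass the filter. Each variant's fraction ligated was then taken as ligated reads over total reads.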

Row | Variant | fraction ligated
1 | C26T T36A | 0.0132
2 | C26T T36G | 0.0188
3 | C26T T36C | 0.00419
4 | T25G G34A | 0.00816
5 | T25G G34C | 0.00366
6 | T25G G34T | 0.0038
7 | T25C G37T | 0.00523
8 | T25C G37A | 0.00575
9 | T25C G37C | 0.00302
10 | C26G A44C | 0.00656
11 | C26G A44G | 0.0117
12 | C26G A44T | 0.0283
13 | C26G G34A | 0.0747
14 | C26G G34C | 0.0293
15 | C26G G34T | 0.00574
16 | C26A A35C | 0.00203
17 | C26A A35G | 0.00416
18 | C26A A35T | 0.00429
19 | C26A G34A | 0.0394
20 | C26A G34C | 0.00194
21 | C26A G34T | 0.00758
22 | C26G A30C | 0.0436
23 | C26G A30T | 0.0435
24 | C26G A30G | 0.0544

Row | Variant | fraction ligated
25 | T25G T32A | 0.00223
26 | T25G T32G | 0.00886
27 | T25G T32C | 0.00349
28 | C26T G33T | 0.206
29 | C26T G33C | 0.325
30 | C26T G33A | 0.481
31 | A27G G33T | 0.807
32 | A27G G33A | 0.814
33 | A27G G33C | 0.35
34 | G28A A30C | 0.802
35 | G28A A30T | 0.814
36 | G28A A30G | 0.816
37 | A27G A29T | 0.808
38 | A27G A29C | 0.809
39 | A27G A29G | 0.797
40 | C26T A44G | 0.142
41 | C26T A44C | 0.091
42 | C26T A44T | 0.246
43 | T25C T32C | 0.00341
44 | T25C T32A | 0.00778
45 | T25C T32G | 0.00219
46 | C26T A30T | 0.339
47 | C26T A30C | 0.333
48 | C26T A30G | 0.5

Row | Variant | fraction ligated
49 | A27C A31C | 0.421
50 | A27C A31T | 0.455
51 | A27C A31G | 0.687
52 | C26G A31T | 0.0387
53 | C26G A31G | 0.0731
54 | C26G A31C | 0.0238
55 | A27C A43C | 0.0394
56 | A27C A43G | 0.0284
57 | A27C A43T | 0.0472
58 | G28A A43G | 0.0763
59 | G28A A43C | 0.0816
60 | G28A A43T | 0.102
61 | A27G A30G | 0.824
62 | A27G A30T | 0.78
63 | A27G A30C | 0.803
64 | A27C A29G | 0.61
65 | A27C A29C | 0.623
66 | A27C A29T | 0.501
67 | A27C | 0.694
68 | A27T | 0.824
69 | A27G | 0.803
70 | T25G A44C | 0.00312
71 | T25G A44T | 0.00667
72 | T25G A44G | 0.00956

Row | Variant | fraction ligated
73 | T25G A35T | 0.396
74 | T25G A35C | 0.845
75 | T25G A35G | 0.00379
76 | C26T T32C | 0.00511
77 | C26T T32A | 0.00354
78 | C26T T32G | 0.00682
79 | T25C G34T | 0.00336
80 | T25C G34A | 0.00778
81 | T25C G34C | 0.00188
82 | A27G A31T | 0.816
83 | A27G A31C | 0.802
84 | A27G A31G | 0.806
85 | A27T A31G | 0.837
86 | A27T A31T | 0.802
87 | A27T A31C | 0.844
88 | A27G A43G | 0.105
89 | A27G A43T | 0.169
90 | A27G A43C | 0.132
91 | T25G G28A | 0.0158
92 | T25G G28C | 0.0182
93 | T25G G28T | 0.0241
94 | A27T A29C | 0.808
95 | A27T A29G | 0.829
96 | A27T A29T | 0.832

Row | Variant | fraction ligated
97 | C26T G37C | 0.00325
98 | C26T G37A | 0.00482
99 | C26T G37T | 0.00513
100 | A27G A44C | 0.69
101 | A27G A44G | 0.746
102 | A27G A44T | 0.774
103 | A27C T36A | 0.0988
104 | A27C T36G | 0.0955
105 | A27C T36C | 0.0483
106 | C26G T36C | 0.00195
107 | C26G T36A | 0.00192
108 | C26G T36G | 0.00843
109 | A27G T32C | 0.0134
110 | A27G T32G | 0.0179
111 | A27G T32A | 0.0468
112 | G28A A44G | 0.753
113 | G28A A44C | 0.667
114 | G28A A44T | 0.773
115 | C26A | 0.121
116 | C26G | 0.0466
117 | C26T | 0.433
118 | C26A G37A | 0.00335
119 | C26A G37C | 0.00572
120 | C26A G37T | 0.00569

Row | Variant | fraction ligated
121 | T25G G37C | 0.00475
122 | T25G G37T | 0.00311
123 | T25G G37A | 0.00178
124 | A27C A44C | 0.244
125 | A27C A44T | 0.441
126 | A27C A44G | 0.38
127 | A27C G42T | 0.0494
128 | A27C G42A | 0.171
129 | A27C G42C | 0.0124
130 | T25G G42A | 0.00421
131 | T25G G42C | 0.004
132 | T25G G42T | 0.000854
133 | C26A G28C | 0.0637
134 | C26A G28T | 0.117
135 | C26A G28A | 0.0578
136 | T25G C26T | 0.00381
137 | T25G C26G | 0.00725
138 | T25G C26A | 0.00653
139 | T25G A29T | 0.0188
140 | T25G A29G | 0.0196
141 | T25G A29C | 0.0105
142 | A27G G28A | 0.797
143 | A27G G28T | 0.824
144 | A27G G28C | 0.793

Row | Variant | fraction ligated
145 | G28A G33A | 0.791
146 | G28A G33T | 0.593
147 | G28A G33C | 0.719
148 | A27T T36C | 0.0659
149 | A27T T36G | 0.16
150 | A27T T36A | 0.122
151 | A27C G33T | 0.818
152 | A27C G33C | 0.817
153 | A27C G33A | 0.835
154 | C26A A27G | 0.481
155 | C26A A27C | 0.134
156 | C26A A27T | 0.0953
157 | A27C G34T | 0.0114
158 | A27C G34C | 0.00877
159 | A27C G34A | 0.15
160 | A27G G34T | 0.00742
161 | A27G G34A | 0.207
162 | A27G G34C | 0.00194
163 | A27T A35T | 0.102
164 | A27T A35G | 0.384
165 | A27T A35C | 0.406
166 | C26A A43T | 0.00633
167 | C26A A43G | 0.00987
